System: hepatoma organoids isolated from liver cancer tissue
Test: Effects of medium additives on proliferation of hepatoma organoids (Example 1)
Type: cell-based, human
Details: additive in basic medium at the final concentration; organoid diameters after 7 days compared with Basic Medium
Protocol: First, a basic medium containing initial medium was prepared. […] In this embodiment, the formulation of the basic medium is: DMEM/F12 medium (purchased from Corning)+100 μg/mL Primocin (purchased from InvivoGen, 0.2% (v/v), commercial product has a concentration of 50 mg/ml).
Different types of additives (see Table 1) were added to the basic medium to prepare culture mediums for hepatoma organoid with different components.
Tissue samples (intraoperative) of liver cancer solid tumor were obtained from patients by professional medical practitioner of professional medical institutions, and all patients have signed the informed consent. Intraoperative samples having the size of 0.25 cm3 were stored and transported using commercial tissue preservation solution (manufacturer: Miltenyi Biotec).
• 3.1. Tissue samples were transferred from the ultra-clean workbench to a culture dish, and the tissue with blood was removed. […] The completion of digestion was determined via observation every 30 minutes, based on the existing of visible particles or not. • 3.4. […]
The primary liver cancer cells obtained in the above steps were resuspended with pre-cooled DMEM/F12 and counted. […] After 7 days, the cultured organoids were photographed and the diameters of the organoids were measured and compiled, so as to compare the promoting effects of various factors on the proliferation of hepatoma organoids. […]

B1: R-spondin1: R-spondin family protein, medium additive, supplier R&D (protein, UniProt Q2MKA7 21-263, looked up)
R-spondin-1: SRGIKGKRQRRISAEGSQACAKGCELCSEVNGCLKCSPKLFILLERNDIRQVGVCLPSCPPGYFDARNPDMNKCIKCKIEHCEACFSHNFCTKCKEGLYLHKGRCYPACPEGSSAANGTMECSSPAQCEMSEWSPWGPCSKKQQLCGFRRGSEERTRRVLHAPVGDHAACSDTKETRRCTVRRVPCPEGQKRRKGGQGRRENANRNLARKESKEAGAGSRRRKGQQQQQQQGTVGPLTSAGPA
  Level of promoting proliferation: +

Source: patent publication US20250129329A1, “CULTURE MEDIUM FOR HEPATOMA ORGANOID CULTURE, HEPATOMA ORGANOID CULTURE METHOD, AND APPLICATION THEREOF” (PRECEDO PHARMACEUTICALS CO., LTD, priority 2021, published 2025)
